These results are taken from PMC8049743, “Discovery and characterization of a novel family of prokaryotic nanocompartments involved in sulfur metabolism” (eLife, 2021).

Data set [1] addresses T1, encapsulated CyD (CyD-loaded SrpI encapsulin) (Synechococcus elongatus, UniProt Q8KUU5).
T1 construct: E. coli; 1-2 CyD copies seen in difference map; with Type 2A encapsulin shell protein SrpI
T1 sequence (Q8KUU5 1-626): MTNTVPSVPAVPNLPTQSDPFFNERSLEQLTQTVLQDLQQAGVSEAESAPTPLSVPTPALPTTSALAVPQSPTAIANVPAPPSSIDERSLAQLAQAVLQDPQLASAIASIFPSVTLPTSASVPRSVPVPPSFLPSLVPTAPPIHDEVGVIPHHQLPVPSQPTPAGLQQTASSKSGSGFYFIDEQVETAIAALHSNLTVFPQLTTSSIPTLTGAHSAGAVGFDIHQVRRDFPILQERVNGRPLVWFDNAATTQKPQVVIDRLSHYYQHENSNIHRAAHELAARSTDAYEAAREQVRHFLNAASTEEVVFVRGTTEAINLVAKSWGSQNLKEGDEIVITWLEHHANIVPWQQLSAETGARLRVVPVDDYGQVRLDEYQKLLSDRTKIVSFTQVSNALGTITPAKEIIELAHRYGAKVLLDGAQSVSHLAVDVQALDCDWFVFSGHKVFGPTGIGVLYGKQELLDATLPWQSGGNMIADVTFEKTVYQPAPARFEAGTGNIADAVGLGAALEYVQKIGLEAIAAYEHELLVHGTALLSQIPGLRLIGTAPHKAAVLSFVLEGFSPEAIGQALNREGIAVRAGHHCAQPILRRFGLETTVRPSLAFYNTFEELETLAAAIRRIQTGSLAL
T1 sequence (Q55032 1-306 partner): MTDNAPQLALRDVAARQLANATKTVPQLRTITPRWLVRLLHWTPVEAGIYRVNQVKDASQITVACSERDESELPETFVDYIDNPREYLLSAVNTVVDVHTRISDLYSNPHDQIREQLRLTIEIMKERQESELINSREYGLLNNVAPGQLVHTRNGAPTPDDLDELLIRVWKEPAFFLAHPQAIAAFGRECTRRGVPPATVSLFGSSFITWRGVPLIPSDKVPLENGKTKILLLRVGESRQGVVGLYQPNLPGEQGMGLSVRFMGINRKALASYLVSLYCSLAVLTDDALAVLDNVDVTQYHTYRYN
Nature of the data set: coupled alanine dehydrogenase assay, NADH fluorescence. It is filed as biochemical. Particulars: 25 mM Tris-HCl pH 8, 150 mM NaCl, 5 mM NAD+, 25 °C, 200 nM enzyme; CyD encapsulated in SrpI shell.

The target in data set [2] is T2, CyD (cysteine desulfurase, unencapsulated) (Synechococcus elongatus, UniProt Q8KUU5).
T2 construct: full length incl; 225-residue N-terminal domain; N-terminal His-SUMO tag cut off; E. coli BL21(DE3) LOBSTR; 68 kDa; PLP enzyme
T2 sequence (Q8KUU5 1-626): T1 sequence (Q8KUU5 1-626)
The data set is described as above. Particulars: 25 mM Tris-HCl pH 8, 150 mM NaCl, 5 mM NAD+, 25 °C, 200 nM enzyme. It is filed as biochemical.

Data set [3] addresses T3, ΔNTD-CyD (unencapsulated) (Synechococcus elongatus, UniProt Q8KUU5).
T3 construct: N-terminal His-SUMO tag cut off; E. coli; 45 kDa
T3 sequence (Q8KUU5 226-626 limits assumed): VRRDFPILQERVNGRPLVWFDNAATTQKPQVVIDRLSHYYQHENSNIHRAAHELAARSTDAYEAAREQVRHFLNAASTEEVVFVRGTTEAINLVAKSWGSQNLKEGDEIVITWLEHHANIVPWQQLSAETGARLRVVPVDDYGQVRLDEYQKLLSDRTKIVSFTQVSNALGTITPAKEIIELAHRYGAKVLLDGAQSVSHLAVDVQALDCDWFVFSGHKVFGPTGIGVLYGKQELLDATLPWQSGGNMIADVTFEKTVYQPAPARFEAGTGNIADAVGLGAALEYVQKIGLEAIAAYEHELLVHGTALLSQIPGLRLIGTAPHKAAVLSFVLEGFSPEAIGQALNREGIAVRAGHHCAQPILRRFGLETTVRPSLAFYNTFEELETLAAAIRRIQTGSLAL
The data set is described as above. It counts as biochemical. The note with it: 25 mM Tris-HCl pH 8, 150 mM NaCl, 5 mM NAD+, 25 °C, 200 nM enzyme.

The target of data set [4] is SrpI encapsulin shell protein with C-terminal 6X-His tag, from inclusion bodies, refolded (Synechococcus elongatus PCC 7942) (UniProt Q55032). Nature of the data set: negative stain TEM; apo-SrpI and holo-SrpI (CyD loaded by refolding) at 300 nM in 50 mM CAPS pH 10, 250 mM arginine, 150 mM NaCl; uranyl formate; 3D reconstruction without symmetry, ~18 Å; difference map.

Data set [5] concerns the molecule itself. Nature of the data set: non-denaturing SDS-PAGE; purified encapsulin, samples not heat-denatured compared with samples heated at 95°C for 15 min.
Data set [6] has as its target T4, SrpI encapsulin shell protein with C-terminal 6X-His tag, from inclusion bodies, refolded (Synechococcus elongatus (strain ATCC …, UniProt Q55032)).
T4 chain: T1 sequence (Q55032 1-306 partner)
Nature of the data set: in vitro cargo loading (co-refolding), SEC co-elution and SDS-PAGE/sfGFP fluorescence; shell unfolded in GuHCl and refolded by dilution in the presence of cargo (encapsulation; CAPS pH 10, 250 mM arginine, glycerol, DTT); NTD fused to sfGFP.

Data set [7] concerns the molecule itself. The data set is described as follows: cryo-EM structure; purified holo-SrpI, 2 mg/mL in 50 mM CAPS pH 10, 250 mM arginine, 150 mM NaCl, 0.05% NP-40; 2.2 Å; symmetry expansion and focused classification for cargo density.

In the case of `N[C@@H](CS)C(=O)O` [L-cysteine], the “coupled alanine dehydrogenase assay, NADH fluorescence” value is “the encapsulated CyD was roughly sevenfold more active than unencapsulated CyD” in data set [1], “Unencapsulated CyD was active towards a cysteine substrate” in data set [2] and “the N-terminal domain had no effect on catalytic activity” in data set [3].
On to “Full-length cysteine desulfurase CyD (Synpcc7942_B2661), purified (enzyme)”, for which the copies of CyD in the difference density of the loaded compartment in data set [4] lay in the range of 1 to 2 copies.

B1: Thermotoga maritima Family 1 encapsulin shell protein (natural protein)
chain: MEFLKRSFAPLTEKQWQEIDNRAREIFKTQLYGRKFVDVEGPYGWEYAAHPLGEVEVLSDENEVVKWGLRKSLPLIELRATFTLDLWELDNLERGKPNVDLSSLEETVRKVAEFEDEVIFRGCEKSGVKGLLSFEERKIECGSTPKDLLEAIVRALSIFSKDGIEGPYTLVINTDRWINFLKEEAGHYPLEKRVEECLRGGKIITTPRIEDALVVSERGGDFKLILGQDLSIGYEDREKDAVRLFITETFTFQVVNPEALILLKF
notes: Family 1 encapsulin shell protein, Thermotoga maritima; also called Tm Enc; T. maritima encapsulin; source: purified
In the case of B1, the binding result in data set [5] was “binds”.

B2: CyD N-terminal domain (residues 1–225) fused to sfGFP (protein)
chain: MTNTVPSVPAVPNLPTQSDPFFNERSLEQLTQTVLQDLQQAGVSEAESAPTPLSVPTPALPTTSALAVPQSPTAIANVPAPPSSIDERSLAQLAQAVLQDPQLASAIASIFPSVTLPTSASVPRSVPVPPSFLPSLVPTAPPIHDEVGVIPHHQLPVPSQPTPAGLQQTASSKSGSGFYFIDEQVETAIAALHSNLTVFPQLTTSSIPTLTGAHSAGAVGFDIHQ
Take B2: the binding result in data set [6] is recorded as “binds”.

B3: SrpI encapsulin shell protein with C-terminal 6X-His tag, from inclusion bodies, refolded (natural protein, Synechococcus elongatus PCC 7942)
chain: T1 sequence (Q55032 1-306 partner)
notes: monomer 35 kDa; T = 1 icosahedral capsid of 60 subunits by cryo-EM; also called apo-SrpI; holo-SrpI (when loaded with CyD); copies: 60
For B3, the “stoichiometry N” value in data set [7] was determined as 60 subunits.

Broadly, the stoichiometry N is the number of molecules, sites or subunits per partner or assembly.
